The term Kd denotes a measure of binding affinity in units of concentration.

Test [1] concerns the target T1, AtUBC8 (Arabidopsis thaliana, UniProt P35131 1-148). As to the kind of experiment: ITC. On the technique in general: In ITC the heat of successive injections is recorded.
Test [2] has as its target T1, AtUBC8. As to the kind of experiment: ITC. The source holds these as a separate data set.

T1 sequence (P35131 whole entry): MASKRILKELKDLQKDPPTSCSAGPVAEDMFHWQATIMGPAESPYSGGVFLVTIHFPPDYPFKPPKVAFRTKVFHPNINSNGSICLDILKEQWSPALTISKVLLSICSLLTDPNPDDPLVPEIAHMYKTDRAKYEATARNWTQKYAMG

B1: AtMUB3 (natural protein)
chain: MPEEESIDIKFRLYDGSDIGPFRYSAASTVDFLKQRVVSDWPKGKTVVPKGINEVKLISSGKILENNKTVGQCKTPFGDIAGGVIVMHVVVQPSLAKSKTEKKVDKAPKAVICTCTIL
Consider B1, for which, in the test with AtUBC8 [1], binding was put at a Kd of 283 nM. This molecule came in with a Ka in the test with AtUBC8 [2] of 3.53e+06 M⁻¹.
